# According to patent US20200283507A1 (US Dept. of Health and Human Services, published 2020):
# T1: Hu/NoV/GI.1/Norwalk/1968/U.S. VLP (human norovirus GI.1, UniProt Q83884 1-530 (Norovirus (strain entry), limits assumed))
# T1 construct: mature; full-length VP1 (ORF2) assembled as virus-like particle in baculovirus/Sf9; also called Norwalk VLP; NV
# T1 sequence (looked up): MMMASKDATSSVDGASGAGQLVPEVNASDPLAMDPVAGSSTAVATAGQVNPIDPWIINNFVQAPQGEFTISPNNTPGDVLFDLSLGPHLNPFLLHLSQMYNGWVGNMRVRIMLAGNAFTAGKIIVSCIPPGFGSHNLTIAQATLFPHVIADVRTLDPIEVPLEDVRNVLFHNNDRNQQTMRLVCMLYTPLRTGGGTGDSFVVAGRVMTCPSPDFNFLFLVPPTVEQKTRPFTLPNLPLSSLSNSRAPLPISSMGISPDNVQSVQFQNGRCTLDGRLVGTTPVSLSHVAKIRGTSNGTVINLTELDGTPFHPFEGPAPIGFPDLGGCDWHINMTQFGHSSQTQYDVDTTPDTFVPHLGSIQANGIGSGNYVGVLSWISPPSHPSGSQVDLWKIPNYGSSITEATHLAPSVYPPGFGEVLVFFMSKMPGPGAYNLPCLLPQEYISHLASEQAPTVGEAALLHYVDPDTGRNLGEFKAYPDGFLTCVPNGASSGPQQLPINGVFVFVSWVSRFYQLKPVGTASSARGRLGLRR
# What was measured:
# [1] = target: T1, Hu/NoV/GI.1/Norwalk/1968/U.S. VLP; assay: VLP ELISA
# [2] = target: T1, Hu/NoV/GI.1/Norwalk/1968/U.S. VLP; assay: blockade ELISA: VLP binding to PGM type III
# Experimental: (§1) Pig Gastric Mucin Type III (PGM) (Sigma Chemicals) was used as a substrate for NoV VLP antibody-blockade assay as previously described. Briefly, PGM was resuspended in PBS at 5 mg/ml and coated onto 96 well U bottom polyvinyl plates Dynatech (Nunc, Thermo, USA) at 10 μg/ml in PBS for 4 hours. Plates were then blocked ON at 4° C. in 5% dry milk in 0.05% Tween₂₀-PBS. […] One hundred μl of VLPs-VHH mix were transferred to the PGM coated plates and incubated for 1 hour. Bound VLPs were detected by specific hyperimmune sera made in guinea pig, followed by anti-guinea pig IgG-HRP (KLP). ABTS/H₂O₂ was used as chromogen/substrate solution. All incubations were performed at room temperature and absorbance at 405 nm was measured. Mean % control binding, EC50 and criteria for determination of a blockade VHH were calculated as described above.
# [3] = target: T1, Hu/NoV/GI.1/Norwalk/1968/U.S. VLP; assay: blockade ELISA: VLP binding to saliva Ly+
# Experimental: (§2) For this assay saliva positive for Ly antigen collected from a secretor individual was used. Saliva was boiled (95° C.) for 10 minutes immediately after collection, centrifuged for 5 minutes at 13000×g and the supernatants stored at −20° C. until used. ELISA 96 well U bottom polyvinyl plates Dynatech (Nunc, Thermo, EEUU) were coated with 100 μl/well of a 1/400 saliva dilution in 50 μM carbonate-bicarbonate buffer, pH 9.6. The plate was incubated overnight at 37° C. in a wet atmosphere. In parallel, serial two-fold dilutions of VHH starting from 8 ug/ml were mixed with 1.5 ug/ml of NoV VLP Norwalk and MD145 and incubated for 1h at 37° C. After 6 washes and a blocking step with 5% dry milk/0.05% Tween₂₀-PBS, 50 ul of each VHH-VLP mixture was transferred to the reaction plate, in duplicate. The assay was developed using a specific polyclonal antiserum made in guinea pig (1:10,000) followed by a peroxidase labeled anti-guinea pig IgG (1:2,000) and ABTS/H₂O₂ as substrate chromogen (KPL), 100 μl per well. Absorbance at 405 nm was measured. Mean % control binding, EC50 and criteria for determination of a blockade VHH were calculated as described above.
# [4] = target: T2, Hu/NoV/GI.1/P7-587/2007/Stromstad/Sweden VLP (human norovirus GI.1); assay: VLP ELISA
# T2 construct: mature; baculovirus VLP; VP2 may be present; also called Norovirus 2007
# [5] = target: T2, Hu/NoV/GI.1/P7-587/2007/Stromstad/Sweden …; assay: cell-based or functional assay
# [6] = target: T3, Hu/NoV/GII.4/HS-191/2001/U.S. VLP (human norovirus GII.4); assay: VLP ELISA
# T3 construct: mature; baculovirus VLP; VP2 may be present
# [7] = target: T4, Hu/NoV/GII.4/RockvilleD1/2012/U.S. VLP (human norovirus GII.4); assay: VLP ELISA
# T4 construct: mature; baculovirus VLP; VP2 may be present
# [8] = target: T5, Hu/NoV/GII.4/MD145-12/1997/U.S. VLP (human norovirus GII.4); assay: VLP ELISA
# T5 construct: mature; baculovirus VLP; VP2 may be present
# [9] = target: T6, Hu/NoV/GII.4/MD2004/2004/U.S. VLP (human norovirus GII.4); assay: VLP ELISA
# T6 construct: mature; baculovirus VLP; VP2 may be present; also called MD2004 VLP
# [10] = target: T7, Hu/GII.6/Bethesda/2012/U.S. VLP (human norovirus GII.6); assay: VLP ELISA
# T7 construct: mature; baculovirus VLP; VP2 may be present
# [11] = target: T8, Hu/NoV/GII.4/CHDC4871/1977/U.S. VLP (human norovirus GII.4); assay: VLP ELISA
# T8 construct: mature; baculovirus VLP; VP2 may be present
# [12] = target: T5, Hu/NoV/GII.4/MD145-12/1997/U.S. VLP; assay: cell-based or functional assay
# [13] = target: T6, Hu/NoV/GII.4/MD2004/2004/U.S. VLP; assay: cell-based or functional assay
# [14] = target: T5, Hu/NoV/GII.4/MD145-12/1997/U.S. VLP; assay: blockade ELISA: VLP binding to synthetic HBGA H3
# [15] = target: T6, Hu/NoV/GII.4/MD2004/2004/U.S. VLP; assay: blockade ELISA: VLP binding to PGM type III
# Experimental: as §1
# [16] = target: T5, Hu/NoV/GII.4/MD145-12/1997/U.S. VLP; assay: blockade ELISA: VLP binding to saliva Ly+
# Experimental: as §2
# [17] = target: T1, Hu/NoV/GI.1/Norwalk/1968/U.S. VLP; assay: cell-based or functional assay
# [18] = target: T9, Hu/NoV/Snow Mountain/GII.2/U.S. VLP (human norovirus GII.2); assay: VLP ELISA
# T9 construct: mature; baculovirus VLP; VP2 may be present
# [19] = target: T10, Hu/NoV/GII.7/DC119/U.S. VLP (human norovirus GII.7); assay: VLP ELISA
# T10 construct: mature; baculovirus VLP; VP2 may be present
# [20] = target: T11, Hu/NoV/GII.3/CHDC4031/1988/U.S. VLP (human norovirus GII.3); assay: VLP ELISA
# T11 construct: mature; baculovirus VLP; VP2 may be present
# [21] = target: T12, Hu/NoV/GII.1/Hawaii/1971/U.S. VLP (human norovirus GII.1); assay: VLP ELISA
# T12 construct: mature; baculovirus VLP; VP2 may be present
# [22] = target: T13, Hu/NoV/GII.2/Henryton/1971/U.S. VLP (human norovirus GII.2); assay: VLP ELISA
# T13 construct: mature; baculovirus VLP; VP2 may be present
Binder,minimum concentration of VHH able to recognize 100 ng of VLP [1] [ng/well],EC50 [2] [µg/mL],minimum concentration of VHH able to recognize 100 ng of VLP [4] [ng/well],"HAI titer, 0 Rh- RBC [5] [µg/mL]",minimum concentration of VHH able to recognize 100 ng of VLP [6] [ng/well],minimum concentration of VHH able to recognize 100 ng of VLP [7] [ng/well],minimum concentration of VHH able to recognize 100 ng of VLP [8] [ng/well],minimum concentration of VHH able to recognize 100 ng of VLP [9] [ng/well],minimum concentration of VHH able to recognize 100 ng of VLP [11] [ng/well],EC50 [15] [µg/mL],EC50 [16] [µg/mL],other results
"VHH 9.8 (VHH, llama VHH, Norwalk library; His6 tag) VHH: QVKLQQSGGGLVQAGGSLRLSCAASGTFSRYAMGWFRQAPGKEREFVAAINWTGGSTYYADSVKGRFTISGDNAKNTVYLQMNSLKPGDTAVYYCAAEVHPGDYGLTYMQSQYEYDYWGQGTQVTVSS",0.5,1.14,,,,,,,,,,EC50 [3]: 1.72 µg/mL
"VHH 8.1 (VHH, llama VHH, Norwalk library; pHEN6, C-terminal His6 tag) VHH: QVKLQESGGGLVQAGGSLRLSCAASGFTFATYAMAWYRQAPGKQRELVASISNFGSTAYGDSVKGRFTISRDNAKNTVYLEMNSLKSEDTAVYYCKRVRDVIGRPELWGQGTQVTVSS",,,1,0.78,,,,,,,,
"VHH 3.2 (VHH, llama VHH, MD2004 library; pHEN6, C-terminal His6 tag; also called clone 3.2) VHH: QVQLQESGGGLVQPGGSLRLSCAASESTPSINTMGWYRQAPGKERELVATITSGGMTNYADSVKGRFTISRDNGKNTVYLQMNSLEPGDTAVYYCNLKRRDLQARFGGYWGQGTQVTVSS",,,,,0.5,0.5,1,2,0.5,2.3,0.917,"minimum concentration of VHH able to recognize 100 ng of VLP [10]: 0.5 ng/well; HAI titer, B Rh+ RBC [12]: 0.19 µg/mL; HAI titer, B Rh+ RBC [13]: 0.19 µg/mL; EC50 [14]: 0.641 µg/mL"
"VHH 11.2 (VHH, llama VHH, Norwalk library; pHEN6, C-terminal His6 tag; also called VHH 11.1) VHH: DVQLQASGGGLVQAGGSLRLSCAASTSRFSSYAMGWSRQAPGKQRELVASISSSGLTTNYADSVKGRFTISRDNAKNTVYLQMNSLKPEDTAVYYCKADGRRYSLNEYWGQGTQVTVSS",,,1,,,,,,,,,
"VHH 12.2 (VHH, llama VHH, Norwalk library; pHEN6, C-terminal His6 tag) VHH: DVQLQASGGGLVQAGGSLRLSCAASGSTISSYAMAWYRQAPGKRRELVAHISSGGSTNYADSVKGRFTISRDNAKNTVYLQMNSLKPEDTAVYYCNIYYGGDYYYTGVKPNPWGQGTQVTVSS",1,2.59,1,0.8,,,,,,,,
"VHH 16 (VHH, MD2004 library, subtractive biopanning; His6 tag; also called 16.1; clone 16) VHH: QVKLQQSGGGLVQPGGSLRLTCAASGFPFSTYAIRWVRRPPGKGLEWVSTIHPDFTTNYADSVSRRFTISRDNAKNTVYLQMNSLKPEDTAVYYCSRGVSGERGQGTQVTVSS",,,,,,,,0.5,,0.767,,binding result [1]: no binding
"VHH 1 (VHH, llama VHH, MD2004 (GII.4) library; pHEN6, C-terminal His6 tag; also called 1.1; clone 1) VHH: QVQLQQSGGGLVQAGGSLRLSCAASGLAFSSYAITWLRQAPGTEREFVALISGSGSSTYYADSVKGRFTISRNNAKNTVYLQMNSLKPEDTAVYYCTASEFLLHPPPPNQKYDYWGQGTQVTVSS",,,,,1,0.25,0.5,0.5,0.25,0.341,2.01,EC50 [14]: 0.85 µg/mL
"VHH 14.5 (VHH, llama VHH, Norwalk library; pHEN6, C-terminal His6 tag) VHH: DVQLQASGGGLVQAGGSLRLSCVASARTFSSYAMGWFRQAPGKEREFVAAISWSGASTDYADSVKGRFTISRDNAKKTVYLQMNTLKPEDTAVYYCAAHHITPTGSYYYSEPLPVDMVYDYWGQGTQVTVSS",0.5,0.351,0.5,0.05,,,,,,,,"HAI titer, 0 Rh- RBC [17]: 0.78 µg/mL; EC50 [3]: 1.56 µg/mL"
"VHH 19 (VHH, MD2004 library, subtractive biopanning; His6 tag; also called 19.1; clone 19) VHH: QVKLQQSGGGLVQPGGSLRLSCAASGFTFRNYAMSWVRQAPGKGLEWVSAIAAGGAVTKYADSVKGRFTISRDNARDTLYLQMNSLKPEDTAVYYCAKPRDFWYSPEFDFRGQGTQVTVSS",,,,,1,2,4,2,1,0.583,1.3,"minimum concentration of VHH able to recognize 100 ng of VLP [18]: 2 ng/well; minimum concentration of VHH able to recognize 100 ng of VLP [19]: 1 ng/well; minimum concentration of VHH able to recognize 100 ng of VLP [20]: 0.5 ng/well; minimum concentration of VHH able to recognize 100 ng of VLP [21]: 1 ng/well; minimum concentration of VHH able to recognize 100 ng of VLP [10]: 2 ng/well; minimum concentration of VHH able to recognize 100 ng of VLP [22]: 2 ng/well; HAI titer, B Rh+ RBC [12]: 0.39 µg/mL; HAI titer, B Rh+ RBC [13]: 0.39 µg/mL"
"VHH 2.1 (VHH, llama VHH, MD2004 library; pHEN6, C-terminal His6 tag; also called clone 2.1) VHH: QVQLQESGGGLVQAGGSLRLSCAASGLTFSSYAMGWFHQAPGKEREFVAAINWSGRDTYYADSVKGRFTISRDNRKNTVYLQMNSLKPEDTAVYYCAAAEFFSSGDPLPGMDYWGKGTLVTVSS",,,,,0.5,0.25,8,0.5,,,,
